Results as given in patent US5612455, “Nuclear factors and binding assay” (Tularik, Inc.).

Experiments:
[1] = biological target: T1, NFAT3 full length (Homo sapiens) (UniProt Q14934); assay: cell_activity; conditions: HepG2 cells; COS cells 50-fold independent of PMA and ionomycin
T1 sequence: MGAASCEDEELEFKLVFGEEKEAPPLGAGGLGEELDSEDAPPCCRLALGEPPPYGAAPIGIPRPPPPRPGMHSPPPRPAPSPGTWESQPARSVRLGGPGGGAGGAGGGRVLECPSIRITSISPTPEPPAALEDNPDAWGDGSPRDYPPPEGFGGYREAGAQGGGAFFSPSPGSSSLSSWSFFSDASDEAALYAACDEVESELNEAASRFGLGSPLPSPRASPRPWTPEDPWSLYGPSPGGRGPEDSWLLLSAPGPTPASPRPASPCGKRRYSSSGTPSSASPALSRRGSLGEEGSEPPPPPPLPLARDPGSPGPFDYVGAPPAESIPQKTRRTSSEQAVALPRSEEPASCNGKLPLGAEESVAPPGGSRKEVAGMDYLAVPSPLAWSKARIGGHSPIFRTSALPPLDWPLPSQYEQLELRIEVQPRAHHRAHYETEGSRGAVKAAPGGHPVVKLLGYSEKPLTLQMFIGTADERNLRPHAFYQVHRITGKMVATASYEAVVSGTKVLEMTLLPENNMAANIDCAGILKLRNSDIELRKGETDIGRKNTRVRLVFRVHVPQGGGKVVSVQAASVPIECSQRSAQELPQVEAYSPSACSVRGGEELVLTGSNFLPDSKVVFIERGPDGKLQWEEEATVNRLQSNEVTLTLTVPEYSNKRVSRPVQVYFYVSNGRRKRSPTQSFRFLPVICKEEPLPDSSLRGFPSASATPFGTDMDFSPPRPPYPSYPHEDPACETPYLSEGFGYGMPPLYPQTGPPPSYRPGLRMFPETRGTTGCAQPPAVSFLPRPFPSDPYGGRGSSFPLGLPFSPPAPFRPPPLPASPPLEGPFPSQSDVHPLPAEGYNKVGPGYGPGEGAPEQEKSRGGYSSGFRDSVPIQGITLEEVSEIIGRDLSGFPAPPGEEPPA

[2] = biological target: T2, NFATc rel domain (NFATc-309) (Homo sapiens, UniProt O95644 SEQ:408-716); assay: EMSA; probe length not stated, core SEQ 15; affinity similar to NFATp and NFAT3; also purified on SEQ 17 resin; conditions: tags: N-terminal 8 aa heart muscle kinase site (pT7-HMK), E. coli
T2 sequence: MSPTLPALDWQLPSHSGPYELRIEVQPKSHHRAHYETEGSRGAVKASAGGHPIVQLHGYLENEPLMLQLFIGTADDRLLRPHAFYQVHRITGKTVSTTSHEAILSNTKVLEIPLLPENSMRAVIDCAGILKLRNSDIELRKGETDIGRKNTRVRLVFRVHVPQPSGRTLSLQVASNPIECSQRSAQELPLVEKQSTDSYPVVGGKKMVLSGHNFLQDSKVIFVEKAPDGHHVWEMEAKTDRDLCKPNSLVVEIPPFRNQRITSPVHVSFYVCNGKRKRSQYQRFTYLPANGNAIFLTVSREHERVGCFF

[3] = biological target: T3, NFATp rel domain (353 aa, homologous to murine NFATp 185-537) (Homo sapiens, UniProt Q13469 SEQ:390-742); assay: EMSA; probe length not stated, core SEQ 15; affinity similar to NFATc and NFAT3; 50 mM KCl, RT; also purified on SEQ 17 affinity resin; conditions: tags: N-terminal 8 aa heart muscle kinase site (pT7-HMK), E. coli
T3 sequence: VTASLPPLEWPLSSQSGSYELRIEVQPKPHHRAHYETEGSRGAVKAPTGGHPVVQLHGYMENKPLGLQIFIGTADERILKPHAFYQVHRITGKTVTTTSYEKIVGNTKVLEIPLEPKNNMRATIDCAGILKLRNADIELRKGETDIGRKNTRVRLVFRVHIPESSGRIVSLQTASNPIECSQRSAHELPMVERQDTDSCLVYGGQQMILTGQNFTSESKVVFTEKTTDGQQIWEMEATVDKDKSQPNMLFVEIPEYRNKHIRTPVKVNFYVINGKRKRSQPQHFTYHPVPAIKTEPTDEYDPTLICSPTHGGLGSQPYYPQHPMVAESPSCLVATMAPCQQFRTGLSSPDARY

[4] = biological target: T4, NFAT4 rel domain (Homo sapiens, UniProt Q12968 SEQ:393-708); assay: EMSA; probe length not stated, core SEQ 15; also purified on SEQ 17 resin; conditions: tags: N-terminal 8 aa heart muscle kinase site (pT7-HMK), E. coli
T4 sequence: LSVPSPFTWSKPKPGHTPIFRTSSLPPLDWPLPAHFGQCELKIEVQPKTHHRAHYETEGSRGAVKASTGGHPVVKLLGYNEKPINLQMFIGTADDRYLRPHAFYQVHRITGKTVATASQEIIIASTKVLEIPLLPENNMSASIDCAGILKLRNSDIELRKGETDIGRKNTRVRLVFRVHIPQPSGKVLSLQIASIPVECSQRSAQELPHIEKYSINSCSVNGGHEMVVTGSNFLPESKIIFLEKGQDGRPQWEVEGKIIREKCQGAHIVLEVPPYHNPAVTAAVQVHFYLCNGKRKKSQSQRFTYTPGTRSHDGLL

[5] = biological target: T5, NFAT3 rel domain (Homo sapiens, UniProt Q14934 SEQ:400-744); assay: EMSA; probe length not stated, core SEQ 15; affinity similar to NFATp and NFATc; also purified on SEQ 17 resin; conditions: tags: N-terminal 8 aa heart muscle kinase site (pT7-HMK), E. coli
T5 sequence: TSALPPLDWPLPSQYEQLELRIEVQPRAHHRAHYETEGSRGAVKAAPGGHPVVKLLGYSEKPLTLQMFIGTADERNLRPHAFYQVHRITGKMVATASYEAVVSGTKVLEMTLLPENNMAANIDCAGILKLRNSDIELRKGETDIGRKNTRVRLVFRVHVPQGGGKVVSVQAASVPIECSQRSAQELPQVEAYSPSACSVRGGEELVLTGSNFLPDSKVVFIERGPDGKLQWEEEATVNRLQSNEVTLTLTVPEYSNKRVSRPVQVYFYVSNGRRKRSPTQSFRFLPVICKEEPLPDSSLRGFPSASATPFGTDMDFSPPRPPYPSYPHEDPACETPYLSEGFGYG

[6] = biological target: T4, NFAT4 rel domain; assay: EMSA; binding not detectable; core only printed; conditions: tags: N-terminal 8 aa heart muscle kinase site (pT7-HMK), E. coli
[7] = biological target: NFATc rel domain + c-Jun/Fra-1 (Homo sapiens, UniProt O95644-2;P05412;P15407 O95644-2:408-716,P05412:1-331,P15407:1-271); assay: EMSA; highly cooperative; jun homodimers less effective; exact EMSA probe not stated; conditions: tags: NFATc HMK site
[8] = biological target: NFAT3 rel domain + c-Jun/Fra-1 (Homo sapiens, UniProt Q14934;P05412;P15407 Q14934:400-744,P05412:1-331,P15407:1-271); assay: as above; conditions: tags: NFAT3 HMK site
[9] = biological target: NFAT4 rel domain + c-Jun/Fra-1 (Homo sapiens, UniProt Q12968;P05412;P15407 Q12968:393-708,P05412:1-331,P15407:1-271); assay: EMSA; highly cooperative; NFAT4 alone does not bind; jun homodimers less effective; exact EMSA probe not stated; conditions: tags: NFAT4 HMK site
[10] = biological target: NFATp rel domain + c-Jun/Fra-1 (Homo sapiens, UniProt Q13469;P05412;P15407 Q13469:392-744,P05412:1-331,P15407:1-271); assay: EMSA; highly cooperative; similar affinity for all four NFATs; jun homodimers less effective; exact EMSA probe not stated; conditions: tags: NFATp HMK site
Chain of NFATp rel domain + c-Jun/Fra-1 (Q13469 392-744, chain 1 of 3): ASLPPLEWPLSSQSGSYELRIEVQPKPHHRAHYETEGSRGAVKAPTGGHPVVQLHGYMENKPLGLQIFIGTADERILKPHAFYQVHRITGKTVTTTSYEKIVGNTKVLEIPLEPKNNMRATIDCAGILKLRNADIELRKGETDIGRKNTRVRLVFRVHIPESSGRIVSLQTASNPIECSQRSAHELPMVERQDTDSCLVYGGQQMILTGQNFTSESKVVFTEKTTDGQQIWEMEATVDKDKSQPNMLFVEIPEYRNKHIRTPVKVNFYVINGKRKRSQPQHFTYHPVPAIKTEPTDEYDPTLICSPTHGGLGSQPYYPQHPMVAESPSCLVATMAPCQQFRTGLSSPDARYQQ
Chain of NFATp rel domain + c-Jun/Fra-1 (P05412 whole entry, chain 2 of 3, the tested form may be a part): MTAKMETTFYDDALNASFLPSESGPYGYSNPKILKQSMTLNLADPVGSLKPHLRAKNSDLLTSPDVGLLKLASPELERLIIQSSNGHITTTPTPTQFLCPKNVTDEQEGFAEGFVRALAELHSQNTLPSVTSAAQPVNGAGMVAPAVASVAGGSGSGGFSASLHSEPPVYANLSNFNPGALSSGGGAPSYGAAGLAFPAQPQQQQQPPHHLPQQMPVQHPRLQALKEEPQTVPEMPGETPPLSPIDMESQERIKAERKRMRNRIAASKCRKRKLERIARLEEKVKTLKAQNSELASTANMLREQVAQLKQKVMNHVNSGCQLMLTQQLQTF
Chain of NFATp rel domain + c-Jun/Fra-1 (P15407 whole entry, chain 3 of 3, the tested form may be a part): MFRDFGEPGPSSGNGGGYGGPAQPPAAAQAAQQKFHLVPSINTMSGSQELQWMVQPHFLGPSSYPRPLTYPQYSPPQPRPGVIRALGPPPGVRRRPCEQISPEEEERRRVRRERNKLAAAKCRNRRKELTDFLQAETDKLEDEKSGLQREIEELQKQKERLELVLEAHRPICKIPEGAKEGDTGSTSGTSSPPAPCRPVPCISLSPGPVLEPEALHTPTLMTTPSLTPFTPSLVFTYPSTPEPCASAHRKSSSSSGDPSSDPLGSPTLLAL

Chain of NFATc rel domain + c-Jun/Fra-1 (P05412 whole entry, chain 2 of 2, the tested form may be a part): as the sequence (P05412 whole entry, chain 2 of 3, the tested form may be a part) above
Chain of NFATc rel domain + c-Jun/Fra-1 (P15407 whole entry, chain 3 of 2, the tested form may be a part): as the sequence (P15407 whole entry, chain 3 of 3, the tested form may be a part) above
Chain of NFAT4 rel domain + c-Jun/Fra-1 (P05412 whole entry, chain 2 of 2, the tested form may be a part): as the sequence (P05412 whole entry, chain 2 of 3, the tested form may be a part) above
Chain of NFAT4 rel domain + c-Jun/Fra-1 (P15407 whole entry, chain 3 of 2, the tested form may be a part): as the sequence (P15407 whole entry, chain 3 of 3, the tested form may be a part) above
Chain of NFAT3 rel domain + c-Jun/Fra-1 (P05412 whole entry, chain 2 of 2, the tested form may be a part): as the sequence (P05412 whole entry, chain 2 of 3, the tested form may be a part) above
Chain of NFAT3 rel domain + c-Jun/Fra-1 (P15407 whole entry, chain 3 of 2, the tested form may be a part): as the sequence (P15407 whole entry, chain 3 of 3, the tested form may be a part) above

Molecule: 3x antigen response element (-286 to -257) tk reporter
- activity (fold activation) [1]: 140

B1: IL-4 promoter NFAT site (dsDNA)
DNA 1: TACATTGGAAAATTTTATTACAC
DNA 2: GTGTAATAAAATTTTCCAATGTA
- binding result [2]: binds
- binding result [3]: binds
- binding signal [4]: > 10 fold lower affinity than NFATp, NFATc, NFAT3
- binding result [5]: binds

B2: IL-2 promoter NFAT site (distal antigen response element) (dsDNA)
DNA 1: GGAAAAACTG
DNA 2: CAGTTTTTCC
- binding result [6]: no binding

B3: IL-2 NFAT/AP-1 composite element (dsDNA)
DNA 1: GGAGGAAAAACTGTTTCATACAGAAGGCGT
DNA 2: ACGCCTTCTGTATGAAACAGTTTTTCCTCC
- binding result [7]: binds
- binding result [8]: binds
- binding result [9]: binds
- binding result [10]: binds
